Measurements published in patent US20130137856A1 (published 2013).
Residue numbers refer to the chain shown, from its start.

Assays:
[1] = target: β2AR truncated after amino acid 365 (β2AR-365) having an amino terminal Flag epitope tag, native, … (human, UniProt P07550 1-365); assay: cell-based or functional assay
[2] = target: full-length human β2AR in commercial insect cell-derived membranes (human, UniProt P07550 1-413); assay: cell-based or functional assay

B1: Nb67 (VHH, not shown: small tags and cut ends)
VHH: QVQLQESGGGLVQAGGSLRLSCAASGTISSFIAMGWYRQSPGKQRELVAGITSGGETNYEDSVKGRFTISRDNAKNTLYLQMNTLKPEDTAVYYCNAQVFADIFNLINYWGQGTQVTVSS
[1]
  Isoproterenol Ki, [3H]-DHA competition binding on Sf9 membranes in the presence of 1 µM nanobody (β2AR alone: 295): 19.4 nM

B2: Nb71 (VHH, not shown: small tags and cut ends)
VHH: QVQLQESGGGLVQPGGSLRLSCAASGFAFSSYELRWYRQAPGKQHELVAGITTGGNTYYADSVKGRFTISRDNAKNTVYLQMSNLRPEDTAVYACNANWDLLSDYWGQGTQVTVSS
[1]
  Isoproterenol Ki, [3H]-DHA competition binding on Sf9 membranes in the presence of 1 µM nanobody (β2AR alone: 295): 10.6 nM

B3: Nanobody-80 (Nb80) (VHH, not shown: small tags and cut ends)
VHH: QVQLQESGGGLVQAGGSLRLSCAASGSIFSINTMGWYRQAPGKQRELVAAIHSGGSTNYANSVKGRFTISRDNAANTVYLQMNSLKPEDTAVYYCNVKDYGAVLYEYDYWGQGTQVTVSS
[2]
  Potency shift of CGP12177A (antagonist): IC50 with irrelevant Nb / IC50 with 500 nM Nb80, 3H-DHA competition: 1 ratio
  Potency shift of ICI118,551 (inverse agonist): IC50 with irrelevant Nb / IC50 with 500 nM Nb80, 3H-DHA competition: 0.9 ratio
  Potency shift of alprenolol (antagonist): IC50 with irrelevant Nb / IC50 with 500 nM Nb80, 3H-DHA competition: 1.1 ratio
  Potency shift of carvedilol (antagonist): IC50 with irrelevant Nb / IC50 with 500 nM Nb80, 3H-DHA competition: 1.2 ratio
  Potency shift of dobutamine (partial agonist): IC50 with irrelevant Nb / IC50 with 500 nM Nb80, 3H-DHA competition: 2.3 ratio
  Potency shift of fenoterol (full agonist): IC50 with irrelevant Nb / IC50 with 500 nM Nb80, 3H-DHA competition: 3.7 ratio
  Potency shift of formoterol (agonist): IC50 with irrelevant Nb / IC50 with 500 nM Nb80, 3H-DHA competition: 4 ratio
  Potency shift of isoproterenol (agonist): IC50 with irrelevant Nb / IC50 with 500 nM Nb80, 3H-DHA competition: 8.8 ratio
  Potency shift of metaproterenol (agonist): IC50 with irrelevant Nb / IC50 with 500 nM Nb80, 3H-DHA competition: 2.9 ratio
  Potency shift of procaterol (agonist): IC50 with irrelevant Nb / IC50 with 500 nM Nb80, 3H-DHA competition: 2.3 ratio
  Potency shift of ritodrine (agonist): IC50 with irrelevant Nb / IC50 with 500 nM Nb80, 3H-DHA competition: 2.7 ratio
  Potency shift of salbutamol (partial agonist): IC50 with irrelevant Nb / IC50 with 500 nM Nb80, 3H-DHA competition: 4.2 ratio
  Potency shift of salmeterol (full agonist): IC50 with irrelevant Nb / IC50 with 500 nM Nb80, 3H-DHA competition: 3.3 ratio
  Potency shift of terbutaline (partial agonist): IC50 with irrelevant Nb / IC50 with 500 nM Nb80, 3H-DHA competition: 4.3 ratio
  Potency shift of timolol (antagonist): IC50 with irrelevant Nb / IC50 with 500 nM Nb80, 3H-DHA competition: 0.6 ratio

B4: Nb65 (VHH, not shown: small tags and cut ends)
VHH: B3 VHH with N61D, K64R, A75K
[1]
  Isoproterenol Ki, [3H]-DHA competition binding on Sf9 membranes in the presence of 1 µM nanobody (β2AR alone: 295): 13.8 nM
